From paper PMC2938383 (Molecular Biology of the Cell, 2010)

Target: the molecule itself
Test: SEC

B1: purified wild-type lipin1β (His6-tagged, baculovirus expressed) (enzyme, mouse, UniProt Q91ZP3 1-924, looked up)
chain: MNYVGQLAGQVFVTVKELYKGLNPATLSGCIDIIVIRQPNGSLQCSPFHVRFGKMGVLRSREKVVDIEINGESVDLHMKLGDNGEAFFVQETDNDQEIIPMYLATSPILSEGAARMESQLKRNSVDRIRCLDPTTAAQGLPPSDTPSTGSLGKKRRKRRRKAQLDNLKRDDNVNSSEDEDMFPIEMSSDEDTAPMDGSRTLPNDVPPFQDDIPKENFPSISTHPQSASYPSSDREWSPSPSSLVDCQRTPPHLAEGVLSSSCPLQSCHFHASESPSGSRPSTPKSDSELVSKSADRLTPKNNLEMLWLWGELPQAAKSSSPHKMKESSPLGSRKTPDKMNFQAIHSESSDTFSDQSPTMARGLLIHQSKAQTEMQFVNEEDLESLGAAAPPSPVAEELKAPYPNTAQSSSKTDSPSRKKDKRSRHLGADGVYLDDLTDMDPEVAALYFPKNGDPGGLPKQASDNGARSANQSPQSVGGSGIDSGVESTSDSLRDLPSIAISLCGGLSDHREITKDAFLEQAVSYQQFADNPAIIDDPNLVVKVGNKYYNWTTAAPLLLAMQAFQKPLPKATVESIMRDKMPKKGGRWWFSWRGRNATIKEESKPEQCLTGKGHNTGEQPAQLGLATRIKHESSSSDEEHAAAKPSGSSHLSLLSNVSYKKTLRLTSEQLKSLKLKNGPNDVVFSVTTQYQGTCRCEGTIYLWNWDDKVIISDIDGTITRSDTLGHILPTLGKDWTHQGIAKLYHKVSQNGYKFLYCSARAIGMADMTRGYLHWVNERGTVLPQGPLLLSPSSLFSALHREVIEKKPEKFKVQCLTDIKNLFFPNTEPFYAAFGNRPADVYSYKQVGVSLNRIFTVNPKGELVQEHAKTNISSYVRLCEVVDHVFPLLKRSHSCDFPCSDTFSNFTFWREPLPPFENQDMHSASA
stoichiometry N: ~4
